The text below walks through data of patent US20240010721A1 (HARBOUR BIOMED SHANGHAI, published 2024).

In assay [1] the target is T1, human ROR1 (hROR1) on cells (human, UniProt Q01973 30-937).
T1 construct: whole, on cells; the cell line is named under assay; also called HEK293T-hROR1; 293T-hROR1
Put plainly: FACS, Panc-1 cells. Further: test concentration or dose not given here.

Assay [2] concerns the target T1, human ROR1 (hROR1) on cells. Put plainly: FACS, HEK293T-hROR1 cells. (In flow cytometry, cells or beads pass a laser one at a time.)
The target of assay [3] is ROR1 (antigen of the KD determination and of the Octet dissociation measurement) (UniProt Q01973 30-403, limits assumed). Put plainly: Octet, antigen form not stated. Background: BLI is a label-free optical method that tracks binding on a fibre tip over time.
Wherever MFI is given: test concentration or dose not given here.

Chain of ROR1 (antigen of the KD determination and of the Octet dissociation measurement) (Q01973 30-403 limits assumed): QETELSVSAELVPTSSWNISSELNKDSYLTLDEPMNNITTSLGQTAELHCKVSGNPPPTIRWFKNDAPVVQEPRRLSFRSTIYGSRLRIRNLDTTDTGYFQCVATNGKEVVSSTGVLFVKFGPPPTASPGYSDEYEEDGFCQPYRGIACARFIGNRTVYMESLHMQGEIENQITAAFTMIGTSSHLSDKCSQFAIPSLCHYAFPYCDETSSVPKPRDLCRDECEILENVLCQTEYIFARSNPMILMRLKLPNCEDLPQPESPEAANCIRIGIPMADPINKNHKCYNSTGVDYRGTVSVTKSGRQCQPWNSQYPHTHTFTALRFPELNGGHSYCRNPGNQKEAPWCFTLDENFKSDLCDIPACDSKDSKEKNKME
T1 sequence (Q01973 30-937): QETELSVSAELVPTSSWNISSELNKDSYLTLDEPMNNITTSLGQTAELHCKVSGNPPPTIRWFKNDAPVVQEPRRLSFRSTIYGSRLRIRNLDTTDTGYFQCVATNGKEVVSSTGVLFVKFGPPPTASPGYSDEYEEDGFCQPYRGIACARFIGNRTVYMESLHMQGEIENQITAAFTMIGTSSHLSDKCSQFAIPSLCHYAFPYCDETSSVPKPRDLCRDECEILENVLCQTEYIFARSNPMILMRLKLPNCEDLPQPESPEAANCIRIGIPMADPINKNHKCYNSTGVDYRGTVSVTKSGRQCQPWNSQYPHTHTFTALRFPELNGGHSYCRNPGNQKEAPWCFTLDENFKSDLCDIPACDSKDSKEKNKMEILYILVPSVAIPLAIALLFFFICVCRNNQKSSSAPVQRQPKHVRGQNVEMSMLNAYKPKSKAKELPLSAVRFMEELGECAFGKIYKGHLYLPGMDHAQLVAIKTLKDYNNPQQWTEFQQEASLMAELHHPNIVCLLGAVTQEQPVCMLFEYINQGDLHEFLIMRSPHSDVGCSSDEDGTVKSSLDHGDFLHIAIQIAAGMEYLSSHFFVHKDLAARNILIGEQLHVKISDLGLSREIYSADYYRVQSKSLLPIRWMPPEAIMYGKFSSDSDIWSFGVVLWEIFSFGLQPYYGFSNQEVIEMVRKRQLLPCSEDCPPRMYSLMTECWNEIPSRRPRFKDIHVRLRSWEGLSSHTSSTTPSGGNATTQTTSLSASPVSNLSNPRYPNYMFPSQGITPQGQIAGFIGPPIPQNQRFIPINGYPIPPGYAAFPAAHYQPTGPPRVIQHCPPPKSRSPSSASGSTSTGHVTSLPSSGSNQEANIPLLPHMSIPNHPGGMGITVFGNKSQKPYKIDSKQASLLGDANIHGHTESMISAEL

B1: PR002562 (antibody, human IgG1, kappa, V domains shown)
VH: QVQLVQSGGGVVQPGRSLRLSCAASGFTFSSYGMHWVRQAPGKGLEWVAIMWYDGSDKDYADSVKGRFTISRDTSKNTLYLQMNSLRAEDTAVYYCAREQARSFDLWGRGTLVTVSS
VL: DIVMTQSPSSLSASVGDRVTITCRASQTINNWLAWYQQKPGKAPKLLIYKASSLESGVPSRFSGSGSGTEFTLTISSLQPDDFATYYCQQYQSYSPMYTFGQGTKVEIKR
notes: PR001354 variant: VL N92Q; hIgG1; also called anti-ROR1 1015M2-C9(L: N92Q) hIgG1
In assay [1], B1 gave an MFI of 5600 MFI. In assay [2], this molecule had an MFI of 43900 MFI. In assay [3], the Response worked out at 0.629 and the koff (as a rule, the first-order rate constant of dissociation) amounted to 0.000162 s⁻¹.

B2: PR002567 (antibody, human IgG1, kappa, V domains shown)
VH: QVQLVQSGGGVVQPGRSLRLSCAASGFTFSSYGMHWVRQAPGKGLEWVAIMWYDASDKDYADSVKGRFTISRDTSKNTLYLQMNSLRAEDTAVYYCAREQARSFDLWGRGTLVTVSS
VL: DIVMTQSPSSLSASVGDRVTITCRASQTINNWLAWYQQKPGKAPKLLIYKASSLESGVPSRFSGSGSGTEFTLTISSLQPDDFATYYCQQYNSYSPMYTFGQGTKVEIKR
notes: PR001354 variant: VH G55A; hIgG1; also called anti-ROR1 1015M2-C9(H: G55A) hIgG1
For B2, the figures for the MFI in assay [1] and in assay [2] were 7030 MFI and 41900 MFI, respectively. Further, the Response in assay [3] was found to be 0.707. For the same molecule, the koff in assay [3] turned out to be 0.000215 s⁻¹.

B3: PR002564 (antibody, human IgG1, kappa, V domains shown)
VH: QVQLVQSGGGVVQPGRSLRLSCAASGFTFSSYGMHWVRQAPGKGLEWVAIMWYEGSDKDYADSVKGRFTISRDTSKNTLYLQMNSLRAEDTAVYYCAREQARSFDLWGRGTLVTVSS
VL: DIVMTQSPSSLSASVGDRVTITCRASQTINNWLAWYQQKPGKAPKLLIYKASSLESGVPSRFSGSGSGTEFTLTISSLQPDDFATYYCQQYNSYSPMYTFGQGTKVEIKR
notes: PR001354 variant: VH D54E; hIgG1; also called anti-ROR1 1015M2-C9(H: D54E) hIgG1
B3 showed an MFI in assay [1] of 6590 MFI. In assay [2], the MFI worked out at 43200 MFI. Besides, in assay [3], the Response turned out to be 0.748 and the koff is 0.000108 s⁻¹.

B4: PR002566 (antibody, human IgG1, kappa, V domains shown)
VH: QVQLVQSGGGVVQPGRSLRLSCAASGFTFSSYGMHWVRQAPGKGLEWVAIMWYEGSDKDYADSVKGRFTISRDTSKNTLYLQMNSLRAEDTAVYYCAREQARSFDLWGRGTLVTVSS
VL: DIVMTQSPSSLSASVGDRVTITCRASQTINNWLAWYQQKPGKAPKLLIYKASSLESGVPSRFSGSGSGTEFTLTISSLQPDDFATYYCQQYNAYSPMYTFGQGTKVEIKR
notes: PR001354 variant: VH D54E, VL S93A; hIgG1; also called anti-ROR1 1015M2-C9(H: D54E; L: S93A) hIgG1
For B4, the MFI was found to be 4630 MFI in assay [1] and 43300 MFI in assay [2]. The molecule also came in with a Response in assay [3] of 0.663. In addition, the koff in assay [3] worked out at 0.000135 s⁻¹.

B5: PR002563 (antibody, human IgG1, kappa, V domains shown)
VH: QVQLVQSGGGVVQPGRSLRLSCAASGFTFSSYGMHWVRQAPGKGLEWVAIMWYDGSDKDYADSVKGRFTISRDTSKNTLYLQMNSLRAEDTAVYYCAREQARSFDLWGRGTLVTVSS
VL: DIVMTQSPSSLSASVGDRVTITCRASQTINNWLAWYQQKPGKAPKLLIYKASSLESGVPSRFSGSGSGTEFTLTISSLQPDDFATYYCQQYNAYSPMYTFGQGTKVEIKR
notes: PR001354 variant: VL S93A; hIgG1; also called anti-ROR1 1015M2-C9(L: S93A) hIgG1
Take B5: the MFI in assay [1] is 5020 MFI; in assay [2], 43800 MFI. This molecule registered a Response in assay [3] of 0.757. This molecule showed a koff in assay [3] of 0.000122 s⁻¹.

B6: PR002565 (antibody, human IgG1, kappa, V domains shown)
VH: QVQLVQSGGGVVQPGRSLRLSCAASGFTFSSYGMHWVRQAPGKGLEWVAIMWYEGSDKDYADSVKGRFTISRDTSKNTLYLQMNSLRAEDTAVYYCAREQARSFDLWGRGTLVTVSS
VL: DIVMTQSPSSLSASVGDRVTITCRASQTINNWLAWYQQKPGKAPKLLIYKASSLESGVPSRFSGSGSGTEFTLTISSLQPDDFATYYCQQYQSYSPMYTFGQGTKVEIKR
notes: PR001354 variant: VH D54E, VL N92Q; hIgG1; also called anti-ROR1 1015M2-C9(H: D54E; L: N92Q) hIgG1
Take B6: the MFI in assay [1] was 6820 MFI; in assay [2], 46900 MFI. Besides, the Response in assay [3] stood at 0.595. Moreover, in assay [3], the koff is 0.000106 s⁻¹.

B7: PR002568 (antibody, human IgG1, kappa, V domains shown)
VH: QVQLVQSGGGVVQPGRSLRLSCAASGFTFSSYGMHWVRQAPGKGLEWVAIMWYDASDKDYADSVKGRFTISRDTSKNTLYLQMNSLRAEDTAVYYCAREQARSFDLWGRGTLVTVSS
VL: DIVMTQSPSSLSASVGDRVTITCRASQTINNWLAWYQQKPGKAPKLLIYKASSLESGVPSRFSGSGSGTEFTLTISSLQPDDFATYYCQQYQSYSPMYTFGQGTKVEIKR
notes: PR001354 variant: VH G55A, VL N92Q; hIgG1; also called anti-ROR1 1015M2-C9(H: G55A; L: N92Q) hIgG1
On to B7, for which the MFI in assay [1] turned out to be 3620 MFI. In addition, in assay [2], the MFI was found to be 46300 MFI. Moreover, in assay [3], the Response turned out to be 0.702 and the koff was 0.00014 s⁻¹.
